“And” between values parts separate entries of the source, which are not always exact repeats. Equal entries are not always repeated.
Columns and labels:
[1] = Hydrolytic stability of PEG conjugates with α-CBZ-histidine in PBS buffer, pH 7.4, 37° C. (HPLC)
Method: The reaction mixture was incubated at 37° C. and periodically analyzed by HPLC.

[2] = Reaction of histidine-linked conjugates with hydroxylamine (release of α-CBZ-His); details: pH 7.3, 25° C., at approximately 42 hours
Source text: FIGS. 14A and 14B provide further evidence of the histidine-selectivity of exemplary polymer reagents provided herein, as illustrated by reaction of their corresponding histidine-linked conjugates with hydroxylamine. The data described below is representative of an indirect method for evaluating covalent attachment of a polymer reagent as provided herein with a histidine residue of an amino acid, peptide, polypeptide or other active histidine containing molecule, by displacement of the histidine-attached molecule resulting from reaction of the histidine-linked polymer conjugate with hydroxylamine.
More particularly, FIG. 14A is a plot illustrating reaction of a histidine conjugate prepared by reaction of Reagent 1 with model compound, α-CBZ-His, with hydroxylamine at pH 7.4, 25° C. […] Histidine conjugates such as the illustrative conjugates tested, when treated with hydroxylamine, undergo a reverse reaction such that the unconjugated histidine compound is released. […] By approximately 22 hours, 100% of the conjugate has disappeared with release of α-CBZ-His.

Molecule	degree of hydrolytic stability relative to the other conjugates tested [1]	% Hydrolysis at day 10 [1]	percent of intact conjugate remaining [2] [%]
COCCOCCOCCOCCOCCOCCOCCOCCOCCOCCOCCOCCOCCOCCOCCOCCOCCOCCOCCOCCOCCOCCOCCOCCOCCOCCOCCOCCOCCOCCOCCOCCOCCOCCOCCOCCOCCOCCOCCOCCOCCOCCOCCOCCOCCOCCOCCOCCOCCOCCOCCOCCOCCOCCOCCOCCOCCOCCOCCOCCOCCOCCOCCOCCOCCOCCOCCOCCOCCOCCOCCOCCOCCOCCOCCOCCOCCOCCOCCOCCOCCOCCOCCOCCOCCOCCOCCOCCOCCOCCOCCOCCOCCOCCOCCOCCOCCOCCOCCOCCOCCOCCOCCOCCOCCOCCOCCOCCOCCOCCOCCOCCOCCOCCN(C)C(=O)n1cnc(C[C@@H](NC(=O)OCc2ccccc2)C(=O)O)c1 [Conjugate 10, mPEG-N(CH3)—CO-α-CBZ-Histidine, 5 kDa]	highest degree of hydrolytic stability	1.8% and 1.9%	–
mPEG-N(CH2CF3)—CO-α-CBZ-Histidine, 5 kDa [Conjugate 14]	moderate degree of hydrolytic stability	–	–
mPEG-Piperazine-CO— α-CBZ-Histidine, 5 kDa [Conjugate 11]	moderate degree of hydrolytic stability	15.6%	4

From patent US20240299561A1, “HISTIDINE-SELECTIVE POLYMER REAGENTS” (Nektar Therapeutics, priority 2021, published 2024)
